The numbers were not newly measured in PMC11105488, which cites them from elsewhere.

Targets include FGFR2c (Homo sapiens) (UniProt P21802); FGFR1c (Homo sapiens) (UniProt P11362); FGFR4 (Homo sapiens) (UniProt P22455).
Sequence of UniProt P22455 (P22455 22-369): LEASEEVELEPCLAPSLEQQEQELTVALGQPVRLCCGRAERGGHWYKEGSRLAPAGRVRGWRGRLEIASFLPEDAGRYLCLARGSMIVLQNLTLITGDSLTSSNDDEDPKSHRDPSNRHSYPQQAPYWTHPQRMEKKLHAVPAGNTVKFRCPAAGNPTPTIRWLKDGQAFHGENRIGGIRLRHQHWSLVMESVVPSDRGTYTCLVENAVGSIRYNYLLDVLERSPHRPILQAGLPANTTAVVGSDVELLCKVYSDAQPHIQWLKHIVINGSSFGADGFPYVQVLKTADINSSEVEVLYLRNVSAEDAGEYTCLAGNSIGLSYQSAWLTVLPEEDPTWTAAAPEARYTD
Sequence of UniProt P11362 (P11362 22-376): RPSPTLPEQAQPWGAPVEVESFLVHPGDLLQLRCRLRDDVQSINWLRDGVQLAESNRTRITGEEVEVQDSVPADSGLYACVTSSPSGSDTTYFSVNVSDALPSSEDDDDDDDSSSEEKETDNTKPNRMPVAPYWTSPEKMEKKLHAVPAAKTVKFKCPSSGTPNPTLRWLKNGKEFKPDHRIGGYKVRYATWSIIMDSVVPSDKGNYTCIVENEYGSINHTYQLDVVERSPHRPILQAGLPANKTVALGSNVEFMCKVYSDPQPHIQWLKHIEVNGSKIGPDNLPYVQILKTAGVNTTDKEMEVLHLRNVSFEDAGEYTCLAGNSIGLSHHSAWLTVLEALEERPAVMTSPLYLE
Sequence of UniProt P21802 (P21802 22-377): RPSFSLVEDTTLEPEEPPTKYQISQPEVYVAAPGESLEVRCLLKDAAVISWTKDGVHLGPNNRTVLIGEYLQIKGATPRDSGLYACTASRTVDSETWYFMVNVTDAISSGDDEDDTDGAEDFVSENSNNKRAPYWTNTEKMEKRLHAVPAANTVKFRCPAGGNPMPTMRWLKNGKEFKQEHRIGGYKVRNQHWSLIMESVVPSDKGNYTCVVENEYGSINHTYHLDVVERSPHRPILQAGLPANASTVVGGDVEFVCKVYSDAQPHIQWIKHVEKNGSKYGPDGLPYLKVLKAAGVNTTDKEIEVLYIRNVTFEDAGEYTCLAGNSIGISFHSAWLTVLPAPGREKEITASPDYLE

Turning to FGF23 (from UniProt Q9GZV9), the Kd (usually the constant that tells how readily two partners part at equilibrium) with FGFR2c (Homo sapiens) is 0.2 µM; with FGFR1c (Homo sapiens), 0.7 µM; in the data set with FGFR4 (Homo sapiens) it was 0.2 µM.
